Assay results as given in the supplement of paper PMC9170038.

Legend:
MS2 coat protein [1] = test: apparent KD of MS2 coat protein; designed switch direction (-1 OFF switch, 1 ON switch): 1; higher = weaker reporter binding
Outline: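 For each design, the apparent KD is the median over clusters of curves fitted to normalised cluster fluorescence. Clusters held RNA switches with common flanks, transcribed on Illumina chips by stalled E. coli RNA polymerase. These were titrated with SNAP-549-labelled MS2 coat protein, doubling from 0.7 or 1.5 nM to 3 µM, without input, with 200 uM small-molecule ligand, or with an oligonucleotide input.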

MS2 coat protein [2] = test: apparent KD of MS2 coat protein; higher = weaker reporter binding; conditions: Eterna round: R107
Outline: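 Illumina sequencing clusters were used for on-chip transcription of designed RNA switches. Titration with SNAP-549-labelled MS2 coat protein followed, in twofold steps from 0.7 or 1.5 nM to 3 µM in 100 mM Tris-HCl pH 7.5, 80 mM KCl, 4 mM MgCl2, without or with constant ligand. Apparent KD is each design's median of fits to normalised cluster binding curves.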

[3] = Eterna round: R95, input ligand: FMN 200 uM
[4] = Eterna round: R95, input ligand: microRNA oligo, concentration not stated
[5] = Eterna round: R95, input ligand: none
[6] = input ligand: microRNA oligo, concentration not stated

Row | Sequence | apparent KD of MS2 coat protein (MS2 coat protein [1]; [3]) | apparent KD of MS2 coat protein (MS2 coat protein [1]; [4]) | apparent KD of MS2 coat protein (MS2 coat protein [1]; [5]) | apparent KD of MS2 coat protein (MS2 coat protein [1]; input ligand: FMN 200 uM) | apparent KD of MS2 coat protein (MS2 coat protein [1]; [6]) | apparent KD of MS2 coat protein (MS2 coat protein [1]; input ligand: none) | further results
1 | AGUCCAGCCUGAGCUGGACAAAAGCAUGUACAUGAGGAUCACCCAUGUUCAUGUAUAAGCUUUUUGCUCGUCUUAAA [Zipper 52 - 11] (puzzle: Sensor for hsa-mir-208a) | 18.5 nM | 10.2 nM | 17.2 nM | – | – | – | –
2 | GACUAUCUAUCUCAGGAUAUCAUGUCAAAGACAUGAGGAUCACCCAUGUACCAGGAAACUGGUUAUGAGAAGGGAGAUAGAUAGA [Mat - Same State 2 - Mod - D44] (puzzle: Same State 2) | 130 nM | 58.1 nM | 991 nM | – | – | – | –
3 | CCGAGUGGCGUACAGGAUAUGUUGCAUGGAACAUGAGGAUCACCCAUGUAUUUGCUCCCGCAUACGCAGAAGGGUGCGUCCUGGG [Arraquorso] (Eterna round: R96, puzzle: Same State 2) | – | – | – | 25 nM | 31.4 nM | 46.9 nM | –
4 | UGUUGUAUUACAGGAUAUCUAGUAUUUUUAUAUAGAGAAGGGUAUUCACAUGAGGAUCACCCAUGUAUAUACGAGGAAGUUGUG [JMF's solution 51] (Eterna round: R96, puzzle: Same State NG 1) | – | – | – | – | 23 nM | – | –
5 | GAAUAGUUGAGAGGAUAUCUAUUAUAAAAGGAUAGAGAAGGUUUUAACAUGAGGAUCACCCAUGUAGGACUAUAUAUGUGAAUA [Parity 100 - Jieux - Same State NG 1] (Eterna round: R96, puzzle: Same State NG 1) | – | – | – | 16.2 nM | 13.6 nM | 16.1 nM | –
6 | AGUCCAGCCUGAGCUGGACAAAAGCAUGUACAUGAGGAUCACCCAUGUUCAUGUACAAGCUUUUUGCUCGUCUUGGA [salish99_208a_r3_103x] (puzzle: Sensor for hsa-mir-208a) | 350 nM | 16.2 nM | 505 nM | – | – | – | –
7 | GGAAACUUGAGAGGAUAUGUAGAGGAUCACCCUACAGAAGGCUCUUUUGAGAGGAUAUGUAGAGGAUCACCCUACAGAAGGCUC [pwkr ssNG DX.14] (Eterna round: R96, puzzle: Same State NG 1) | – | – | – | 30.7 nM | 26.5 nM | 87 nM | –
8 | GUAGAUAUAACGGAGGAUAUUCAAUGAGAGACAUGAGGAUCACCCAUGUAAGAGUGAGAUGAUAGGAAGAAGGCUGAGAGAGAUG [Altered State 2-9 - Jieux - Same State 2] (puzzle: Same State 2) | 140 nM | 139 nM | 102 nM | – | – | – | –
9 | UAUGACUUACAAGGAUAUUAAUAACAUGAGGAUCACCCAUGUGGCUGUGAGAGUUAGAUAAGCUAUAAGAAGGUGUGUGUGUUU [JR_SSNG2_Sub094] (Eterna round: R96, puzzle: Same State NG 2) | – | – | – | 62.7 nM | 133 nM | 173 nM | –
10 | GCAGUACUAGCAGAGGAUAUGUCGGUAACGACAUGAGGAUCACCCAUGUGUACGAAAGUGCUCAGACAGAAGGCUGAGUACUGCU [Same State 2 - Hyphema v.1] (puzzle: Same State 2) | 17.8 nM | 58.4 nM | 78.4 nM | – | – | – | –
11 | CAGCGCUGCCGGGAGGAUAUGCGGUGAUGGACAUGAGGAUCACCCAUGUUAGCGGUAGCAUUACGGCAGAAGGCCCUGCAGCUGC [Soteed Omei mod 1] (puzzle: Same State 2) | 10.9 nM | 12.3 nM | 12.3 nM | – | – | – | –
12 | UCAAGCGUUUGGCUCGUCUUAUGUUUUGUACAUGAGGAUCACCCAUGUUUUGUACGAUCCAGUUAGAUGGUAUUUUG [JR_SHM208A_Sub038] (puzzle: Sensor for hsa-mir-208a) | 39.8 nM | 121 nM | 54.6 nM | – | – | – | –
13 | AGUCCAGCGAGAGCUGGACAAAAGCAUGUACAUGAGGAUCACCCAUGUCAUGUACAAGCUUUUUGCUCGUCUUAAAA [Mat - hsa-mir-208a - Mod of JL - D5] (puzzle: Sensor for hsa-mir-208a) | 332 nM | 13.5 nM | 618 nM | – | – | – | –
14 | UUACUCAUGUAAGGAUAUGCAGCCGUUUCGGCUGCAGAAGGUACUAUAAUACAUGAGGAUCACCCAUGUCUCUAUUAUUUAGUU [JL SSNG1 1.43] (Eterna round: R96, puzzle: Same State NG 1) | – | – | – | 151 nM | 39.6 nM | 52.7 nM | –
15 | CAAGAAAACGCAGGAUAUACCCGAACAACCCGGGUAGAAGGGUGACACAUGAGGAUCACCCAUGUACAUGGCAUUAGCCAUGGA [Esusxebeis] (Eterna round: R96, puzzle: Same State NG 1) | – | – | – | 1020 nM | 262 nM | 430 nM | –
16 | GCUAGGAAAUAAGCCAACAUGAGGAUCACCCAUGUAUGUUGGUAGGAUAUCGUAUGCAAAGCAUACGAGAAGGGCUAACCUAGC [Mat - Same State NG 3 - JL Mod - D71] (Eterna round: R96, puzzle: Same State NG 3) | – | – | – | 69.5 nM | 62.8 nM | 76 nM | –
17 | AAGUAACAUGAGGAUCACCCAUGUGAGGUGAGCGUAGGAUAUCGAGAAGGAAGGGUGGAGCGAGAAGGACGAGGGA [JR_SS1_Sub0101] (puzzle: Same State 1) | 565 nM | 463 nM | 389 nM | – | – | – | –
18 | AUUAUUAAUGCAGGAUAUGAUUAACAUGAGGAUCACCCAUGUGGUGUUGUGAGUAAGGAGAGAGAUCAGAAGGGCAUUUUUUUU [JMF's solution 5] (Eterna round: R96, puzzle: Same State NG 2) | – | – | – | 317 nM | 263 nM | 361 nM | –
19 | AACAAUCUAUCUGAGGAUAUCAUGAAAUAAACAUGAGGAUCACCCAUGUGCAGGAAAACUGCAUAUUAGAAGGCAGAUAGAUUGA [salish99_ss2_r3_049] (puzzle: Same State 2) | 163 nM | 38.8 nM | 151 nM | – | – | – | –
20 | GUGGUCAGACAUGAGGAUCACCCAUGUGGAAUAAAUAAGGAGAAGGAUAUUAAAUAUAGGAUAUAUAAGAAGGUCUGGUUGGUG (Eterna round: R96, puzzle: Same State NG 3) | – | – | – | – | 65.2 nM | – | –
21 | UAGAAACAUGAGGAUCACCCAUGUGGGUUAAACACAGGAUAUCACGCCAAAAGAAAAGCGUGAGAAGGGUGACCGA [Xeusisus] (puzzle: Same State 1) | 166 nM | 71.2 nM | 161 nM | – | – | – | –
22 | CGUAGGUGGCUGGAGGAUAUUCGAGUGGUAACAUGAGGAUCACCCAUGUGUCGCGCGGUACAUGAGGAGAAGGCUAGCGGCCUGC (puzzle: Same State 2) | 20.8 nM | 118 nM | 250 nM | – | – | – | –
23 | GUGCUCGUGUGAGGAUAUGCUUCCGUUUCGGCUGCAGAAGGUACUAUUAUACAUGAGGAUCACCCAUGUCUCUUUUCUUCGGUG [salish99_SSNG1_r04_912] (Eterna round: R96, puzzle: Same State NG 1) | – | – | – | – | 22.8 nM | – | –
24 | GCUAGAAUUAACGCCUACAUGAGGAUCACCCAUGUAUGUAGGCAGGAUAUCGUUUGCUUUGCAAACGAGAAGGGCCUUACUAGC [JL SSNG3 1.11] (Eterna round: R96, puzzle: Same State NG 3) | – | – | – | 22.3 nM | 53.3 nM | 42 nM | –
25 | GCGGCGGCACGGCAGGAUAUGAUAUAACCUACAUGAGGAUCACCCAUGUCGGCGGGUUGCAAAAUUCAGAAGGGCCCUGUAGGCC [Inberere] (puzzle: Same State 2) | 21.8 nM | 34.4 nM | 37.2 nM | – | – | – | –
26 | GGAGGAUUCGCAGGAUAUUCCUGAACACUGUAGGAAGAAGGGUGACGUAUCAGCACCAAGUGACAUGAGGAUCACCCAUGUUAA [Eternabot solution 24] (Eterna round: R96, puzzle: Same State NG 1) | – | – | – | 137 nM | 93.7 nM | 114 nM | –
27 | GCUUCACAUGAGGAUCACCCAUGUUUUCGGAGUCGAGGAUAUGGUCACUGUAAACAGUGGCCAGAAGGCGAGGAGC [SS1 - Son of Teenbexe v8] (puzzle: Same State 1) | – | 17 nM | – | – | – | – | –
28 | GGAUGAUUAACAGGAUAUCAUUUGUAAAUUCGAUGAGAAGGGUUGAUUACUUACACGACGUGUUACAUGAGGAUCACCCAUGUU [SameState NG1 #6] (Eterna round: R96, puzzle: Same State NG 1) | – | – | – | 372 nM | 385 nM | 548 nM | –
29 | GACCGGUUAUAGUGCGAUUGUCUUGUGGAAGGAGCGCAGAGGACUGCAGGUAGGUCGCCACAUGAGGAUCACCCAUGUCAGGAUA [Tirevete] | – | – | – | – | – | – | apparent KD of MS2 coat protein (MS2 coat protein [2]; input ligand: arginine 13.2 mM): 33.8 nM; apparent KD of MS2 coat protein (MS2 coat protein [2]; input ligand: none): 23.7 nM; apparent KD of MS2 coat protein (MS2 coat protein [2]; input ligand: theophylline 20 uM): 33.4 nM; apparent KD of MS2 coat protein (MS2 coat protein [2]; input ligand: theophylline 2 mM): 43.9 nM; apparent KD of MS2 coat protein (MS2 coat protein [2]; input ligand: tryptophan 2.4 mM): 22.3 nM
